Results reported in US20220267415A1.

Biological target: recombinant SARS-CoV-2 Receptor Binding Domain (RBD) with a his tag (ATUM, Cat. 65639.1.a) (SARS-CoV-2), P0DTC2
Experiment: ELISA on coated RBD-his
Settings: remark: other sources report otherwise

B1: anti-SARS-CoV2-09 IgG (antibody, V domains shown)
VH: QVQLHQWGAGLLKPSETLSRTCAVYGGSFSGYYWTWIRQAPGKGLEWIGEINHGGSTRYNPSLESRVSISVDTSKKQFSLELRSVTAADTAIYYCARGYDTNWYGDGYNWFDPWDRGTLVTVSS
VL: QSALTQDPSVSVALGQTVRITCQGDSLRGSFASWYRQKPGQAPVLVIFGINNRPSGVPDRFSGSSSGNTASLTITGAQAEDEADYYCNSRESNSNRILFGGGTKVTVL
How did the EC50 turn out when B1 was run?
Its EC50 is 2.3 nM.

B2: anti-SARS-CoV2-16 IgG (antibody, V domains shown)
VH: B1 VH
VL: QAVVTQPPSVSGTPGQRVTISCSGSSSSIGSNTVHWYQHLPGTAPKLLMYNNNERPSGVPARFSGSKSGTSASLVITGLQADDEAEYYCQSYDTGLSGHVFGSGTELTVL
How did the EC50 turn out when B2 was run?
Its EC50 is 4.2 nM.
